Results from publication PMC5790001.

The substances below were run against human CCR5 on CHO-CD4-CCR5 cells (human) (UniProt P51681).

Substance | percent of surface CCR5 internalized, flow cytometry (mAb 3A9) of CHO-CD4-CCR5 cells treated with 100 nM ligand, 4 h, 37 °C
CCL5 6p4 5 m (E. coli) (from UniProt P13501 24-91) (ligand) | 70%
wt CCL5 (E. coli) (from UniProt P13501 24-91) (ligand) | 55%

These substances were tested against CCR5 (human (endogenous in PM1 cells and MDM)) (UniProt P51681).

Substance | IC50 of HIV-1BaL inhibition, acute infection assay, protein from total chemical synthesis; blocks HIV-1 entry through CCR5
CCL5 5p12 5 m (total chemical synthesis) (from UniProt P13501 24-91) (ligand) | 3.9 pM
CCL5 6p4 5 m (total chemical synthesis) (from UniProt P13501 24-91) (ligand) | 3.9 pM

Biological target: CCR5 (human (endogenous in PM1 cells and MDM)) (UniProt P51681)
Remark: another data set of the same source

Substance | other
CCL5 A13F (from UniProt P13501 24-91) (ligand) | 92 pM
CCL5 A13V (from UniProt P13501 24-91) (ligand) | 86 pM
5p12 Y27W/F28W/E66S (from UniProt P13501 24-91) (ligand) | 7.7 pM
CCL5 A13Y (from UniProt P13501 24-91) (ligand) | 78 pM
6p4 F12Y/A13V/Y27W/F28W/E66S (CCL5 6p4 5 m) (L. jensenii) (from UniProt P13501 24-91) (ligand) | 4.7 pM
5p12 F12Y/A13V/Y27W/F28W/E66S (CCL5 5p12 5 m) (L. jensenii) (from UniProt P13501 24-91) (ligand) | 5.5 pM
5p12 Y27W/F28W (from UniProt P13501 24-91) (ligand) | 8.2 pM
CCL5 F12Y/A13V/Y27W/F28W (CCL5 4 m) (from UniProt P13501 24-91) (ligand) | 115 pM
5p12 F12Y/A13V (from UniProt P13501 24-91) (ligand) | 30 pM
C1C5 Y27W (from UniProt P13501 24-91) (ligand) | 3700 pM
CCL5 F12Y/A13V/Y27W/F28W/E66S (CCL5 5 m) (L. jensenii) (from UniProt P13501 24-91) (ligand) | 34 pM
CCL5 F12P (from UniProt P13501 24-91) (ligand) | > 1000 pM
5p12 E66S (from UniProt P13501 24-91) (ligand) | 18 pM

The remaining lines, values ahead:

other | Substance
> 1000 pM | CCL5 A13P (from UniProt P13501 24-91) (ligand)
30 pM | 6p4-RANTES (L. jensenii) (from UniProt P13501 24-91) (ligand)
169 pM | CCL5 A13W (from UniProt P13501 24-91) (ligand)
190 pM | CCL5 E66S (from UniProt P13501 24-91) (ligand)
162 pM | CCL5 F28W (from UniProt P13501 24-91) (ligand)
1600 pM | C1C5 E66S (from UniProt P13501 24-91) (ligand)
17 pM | 5p12 Y27W (from UniProt P13501 24-91) (ligand)
256 pM | CCL5 A13M (from UniProt P13501 24-91) (ligand)
255 pM | CCL5 Y27W (from UniProt P13501 24-91) (ligand)
95 pM | CCL5 Y27W/F28W (from UniProt P13501 24-91) (ligand)
179 pM | CCL5 F12Y/A13V (from UniProt P13501 24-91) (ligand)
46 pM | CCL5 Y27W/F28W/E66S (from UniProt P13501 24-91) (ligand)
833 pM | C1C5 27W/28 W (from UniProt P13501 24-91) (ligand)
640 pM | C1C5 Y27W/F28W/E66S (from UniProt P13501 24-91) (ligand)
> 6500 pM | CCL5 F12W (from UniProt P13501 24-91) (ligand)

Biological target: CCR5 (human (endogenous in PM1 cells and MDM)) (UniProt P51681)
Remark: another data set of the same source

other | Substance | IC50 (pM) of HIV-1BaL inhibition, acute infection assay in PM1 cells (p24), protein purified from E. coli; blocks HIV-1 entry through CCR5
7.9 pM | CCL5 6p4 5 m (E. coli) (from UniProt P13501 24-91) (ligand) | –
35 pM | 6p4-RANTES (E. coli) (from UniProt P13501 24-91) (ligand) | –
21 pM | 5p12-RANTES (E. coli) (from UniProt P13501 24-91) (ligand) | –
– | wt CCL5 (E. coli) (from UniProt P13501 24-91) (ligand) | 810 pM

Substance | other | IC50 (pM) of HIV-1BaL inhibition, acute infection assay in PM1 cells (p24), protein purified from E. coli; blocks HIV-1 entry through CCR5
CCL5 5p12 5 m (E. coli) (from UniProt P13501 24-91) (ligand) | 6.1 pM | –

Biological target: CCR5 (human (endogenous in PM1 cells and MDM)) (UniProt P51681)
Remark: another data set of the same source

Substance | IC50 of inhibition of HIV-1BaL infection in human monocyte-derived macrophages (MDM); blocks HIV-1 entry through CCR5 | IC50 of inhibition of the primary R5 HIV-1 strain 98IN007 (clade C), acute infection assay in PM1 cells; blocks HIV-1 entry through CCR5 | IC50 of inhibition of the primary R5 HIV-1 strain 5513 (clade B), acute infection assay in PM1 cells; blocks HIV-1 entry through CCR5
CCL5 5p12 5 m (E. coli) (from UniProt P13501 24-91) (ligand) | 14.2 pM | 7.6 pM | 15.5 pM
